Source: the RNAGym collection of RNA variant scans (doi:10.1073/pnas.2313332121)

B1: TPR t1 (parent)
chain: GACCAAUCUGCCCUCAGAGCUCGAGAACAUCUUCGGAUGCAGAGGAGGCAGGCUUCGGUGGCGCGAUAGCGCCAACGUCCUCAACCUCCAAUGCAUCCCACCACAUGAUGAUGCCUGAAGAGCCUUGGUUUUUUG

Variants of: B1
Experiment: polymerase ribozyme fitness, log enrichment relative to wild type (log ratio); higher = more active; in vitro selection for triplet polymerase activity
In short: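 The heterodimeric triplet polymerase ribozyme's subunits were each mutagenized into PCR-built libraries and transcribed. Every library was selected once, in triplicate, by annealing with a biotinylated primer, the partner subunit and triplets, incubating frozen at −7 °C, gel-excising extended constructs, capturing on streptavidin beads and running RT-PCR. Input and output libraries were Illumina-sequenced, with genotypes kept only at ≥10 input reads and ≥1 read per output. Fitness, from inverse-variance-weighted replicate averages, is the base-2 logarithm of genotype enrichment over wild-type enrichment.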

Compared with A43U C70G, G42U G61A is higher in “polymerase ribozyme fitness (log ratio)” value: -4.41 for the first, -1.21 for the second.

First: A43C U87G G113C
Second: A43G A50G G60U A95G U132C
The “polymerase ribozyme fitness (log ratio)” value of the first is higher: -2.52 for the first, -3.96 for the second.

First: A43U C124A
Second: G44A U87G U129G
The “polymerase ribozyme fitness (log ratio)” value of the first is higher: 0.127 for the first, -1.42 for the second.

Compared with G44C A83U, A41U C102U is lower in “polymerase ribozyme fitness (log ratio)” value: -0.396 for the first, -3.6 for the second.

A43C G113A and G44C C98U U126C are within 0.2 log units of each other in “polymerase ribozyme fitness (log ratio)” value: -2.91 for the first, -3.05 for the second.

Going from G44C C70A U96A to A43G G77A A83C C88G A121U G128U, the “polymerase ribozyme fitness (log ratio)” value falls from -3.81 to -5.57.

Compared with A43C C72A U81C, G42U G61U C82U G127A U133A is lower in “polymerase ribozyme fitness (log ratio)” value: -3.09 for the first, -3.41 for the second.

G42A C114G and A43C C101U are the same in “polymerase ribozyme fitness (log ratio)” value: -2.75 for the first, -2.75 for the second.

Compared with A43U G52U A68G C124U, G42C U109C is lower in “polymerase ribozyme fitness (log ratio)” value: -5.64 for the first, -6.86 for the second.

Compared with A43G C72U C94G C101U U116G, G44C C49U C114U is higher in “polymerase ribozyme fitness (log ratio)” value: -4.87 for the first, -3.24 for the second.

Going from A43G C64G U87G G110A to G42U A121C, the “polymerase ribozyme fitness (log ratio)” value rises from -6.77 to 0.464.

Going from G42C A66G C79U A121C U133G to A41U C79U, the “polymerase ribozyme fitness (log ratio)” value rises from -1.36 to -0.893.

Going from G42A G63A to G42C U133G, the “polymerase ribozyme fitness (log ratio)” value rises from -2.56 to -1.65.

Going from G42C A46U C82G to G44C C53G G61A, the “polymerase ribozyme fitness (log ratio)” value rises from -3.68 to -0.806.

Compared with G42A C99U, A43U G45A C56U C62U U92A is higher in “polymerase ribozyme fitness (log ratio)” value: -6.05 for the first, -4.61 for the second.

Going from A43C G117A to G42U C70U U126G, the “polymerase ribozyme fitness (log ratio)” value falls from -3.01 to -5.19.

Going from G44A C89G C115A C124A U129A to A41U G47C A75U, the “polymerase ribozyme fitness (log ratio)” value falls from -1.46 to -3.07.

First: G42U G57U C82U
Second: A43G A66G
The “polymerase ribozyme fitness (log ratio)” value of the first is higher: -1.58 for the first, -4.35 for the second.

First: A43U A50U G60A U112A
Second: G42A A83C
The “polymerase ribozyme fitness (log ratio)” value of the first is lower: -4.39 for the first, -1.87 for the second.

First: G42U C88U C101G
Second: G42A C56A U112A G120A
The “polymerase ribozyme fitness (log ratio)” value of the first is higher: -3.94 for the first, -4.77 for the second.

First: A43U G77A G120A U134G
Second: A43C U78C C88U G93A
The “polymerase ribozyme fitness (log ratio)” value of the first is higher: -0.215 for the first, -2.62 for the second.

Compared with G42C C56U C124A, G42A U87C C89G A90G C115U is lower in “polymerase ribozyme fitness (log ratio)” value: 0.861 for the first, -5.47 for the second.

Compared with A43C G93U, G42U G61U C123A is higher in “polymerase ribozyme fitness (log ratio)” value: -2.59 for the first, -0.3 for the second.

First: A41U C53G G63C C72U G77A
Second: G44C A95C
The “polymerase ribozyme fitness (log ratio)” value of the first is lower: -3.7 for the first, -2.1 for the second.

First: G42C C124G
Second: G42C C62U
The “polymerase ribozyme fitness (log ratio)” value of the first is higher: 0.37 for the first, -2.97 for the second.

Compared with A43C C85U C115G, G42U A50C is higher in “polymerase ribozyme fitness (log ratio)” value: -4.93 for the first, -1.99 for the second.

Compared with G44C G48A, A41U C94U A111G G128U is lower in “polymerase ribozyme fitness (log ratio)” value: -0.967 for the first, -4.31 for the second.

Going from A41U A91C U92C to A43C A118U, the “polymerase ribozyme fitness (log ratio)” value rises from -2.44 to -1.82.

First: G42U G93A
Second: G44A C98U C104U U116C
The “polymerase ribozyme fitness (log ratio)” value of the first is higher: -2.14 for the first, -4.16 for the second.

First: G44A C102U
Second: G42C G44U A50C U125A
The “polymerase ribozyme fitness (log ratio)” value of the first is lower: -4.04 for the first, -3.27 for the second.

Going from A43C U78C C80A C89U to G42U G71U, the “polymerase ribozyme fitness (log ratio)” value rises from -4.14 to -2.08.

Compared with A43U G110U, A41U U133G is higher in “polymerase ribozyme fitness (log ratio)” value: -3.52 for the first, -1.49 for the second.

Going from G42A C70A C102U C114G U125A to G44A C70U, the “polymerase ribozyme fitness (log ratio)” value rises from -6.46 to -1.67.

Going from A43G C64U to G42A C49G C72A C94U U130A U132C, the “polymerase ribozyme fitness (log ratio)” value falls from -1.23 to -3.26.

Going from A41U C70A C89G C97A A105C G110U to G42U A43C C73U G93A, the “polymerase ribozyme fitness (log ratio)” value rises from -5.8 to -2.39.

G44A G63A A84U and A43U G93U are within 0.2 log units of each other in “polymerase ribozyme fitness (log ratio)” value: -2.6 for the first, -2.7 for the second.

First: G42U A50U G69U A105G
Second: A43C G45A A50G G113U G120C
The “polymerase ribozyme fitness (log ratio)” value of the first is lower: -3.63 for the first, -1.89 for the second.

Going from G42U U130A to A43C U92G A111C C114A, the “polymerase ribozyme fitness (log ratio)” value falls from -1.76 to -6.46.

Going from G42A G47A U112A to A41G G61U U96A A105U U133C, the “polymerase ribozyme fitness (log ratio)” value falls from -1.49 to -6.14.

Going from A41U A46U G63U C115A G120U C123G to A41U A90C, the “polymerase ribozyme fitness (log ratio)” value rises from -3.28 to -1.41.

First: A41U A43C C79U C80U C124U
Second: A43C C56U C94A G117A
The “polymerase ribozyme fitness (log ratio)” value of the first is higher: -4.76 for the first, -5.97 for the second.

Compared with G44C C86U U96G U129C, A43U A121C is higher in “polymerase ribozyme fitness (log ratio)” value: -2.63 for the first, 0.506 for the second.
